Test results taken from the Human Domainome abundance scans (Beltran et al. 2025).
± gives the uncertainty stated by the source.

B1: TOX high mobility group box family member 3, residues 256 to 323; numbered along this chain, O15405 (parent)
chain: QKPVSAYALFFRDTQAAIKGQNPNATFGEVSKIVASMWDSLGEEQKQVYKRKTEAAKKEYLKALAAYR

Variants of: B1
Test: abundance fitness (aPCA) (normalised: wild type 0, dead -1); higher = more abundant; growth selection in yeast, the domain comes from the species named
Settings: Homo sapiens

| Variant | abundance fitness |
| --- | --- |
| A6H | -0.597 ± 0.37 |
| A6S | -0.075 ± 0.092 |
| A6R | -0.808 ± 0.1 |
| A6M | -0.316 ± 0.1 |
| A6E | 0.156 ± 0.16 |
| T53K | 0.001 ± 0.098 |
| T53F | 0.157 ± 0.11 |
| T53W | -0.152 ± 0.055 |
| T53S | 0.113 ± 0.048 |
| T53R | -0.111 ± 0.043 |
| T53H | 0.12 ± 0.091 |
| R68Q | -0.044 ± 0.089 |
| R68T | -0.007 ± 0.078 |
| A66V | 0.064 ± 0.075 |
| A66H | 0.124 ± 0.088 |
| E44Y | -0.955 ± 0.25 |
| E44T | -0.072 ± 0.076 |
| E44N | -0.11 ± 0.13 |
| E44M | -0.493 ± 0.096 |
| I33Q | -0.122 ± 0.092 |
| I33H | -0.324 ± 0.1 |
| I33V | -0.159 ± 0.052 |
| I33K | -0.01 ± 0.081 |
| I33W | -0.507 ± 0.1 |

| Variant | abundance fitness |
| --- | --- |
| I33E | -0.131 ± 0.067 |
| I33L | -0.016 ± 0.047 |
| I33R | -0.134 ± 0.054 |
| D13S | -0.516 ± 0.092 |
| D13A | -0.259 ± 0.12 |
| D13F | -0.494 ± 0.12 |
| V48G | 0.505 ± 0.26 |
| T26M | -0.862 ± 0.11 |
| T26W | -0.811 ± 0.14 |
| T26V | -0.845 ± 0.11 |
| T26R | -0.266 ± 0.049 |
| T26S | 0.051 ± 0.055 |
| K58M | -0.078 ± 0.066 |
| K58Y | -0.279 ± 0.095 |
| K58Q | 0.039 ± 0.072 |
| K58P | -0.113 ± 0.064 |
| K58V | 0.03 ± 0.061 |
| K58A | 0.016 ± 0.045 |
| K58H | -0.242 ± 0.15 |
| D39E | 0.022 ± 0.084 |
| D39H | -0.065 ± 0.09 |
| D39V | -0.262 ± 0.071 |
| N22D | -0.41 ± 0.31 |
| N22Q | -0.182 ± 0.073 |

| Variant | abundance fitness |
| --- | --- |
| N22F | -0.298 ± 0.12 |
| N22S | -0.451 ± 0.071 |
| N22M | -0.437 ± 0.12 |
| N22I | -0.515 ± 0.13 |
| S36R | -0.114 ± 0.056 |
| S36D | -0.03 ± 0.096 |
| L41E | -0.922 ± 0.16 |
| L41P | -0.724 ± 0.2 |
| L41K | -0.931 ± 0.14 |
| L41I | -0.187 ± 0.15 |
| L41T | -0.298 ± 0.13 |
| L41W | -1.05 ± 0.14 |
| K62S | -0.092 ± 0.043 |
| K62M | -0.205 ± 0.057 |
| K62A | -0.022 ± 0.062 |
| K62R | -0.002 ± 0.038 |
| K62Y | -0.396 ± 0.063 |
| F27G | -0.071 ± 0.047 |
| F27R | 0.077 ± 0.047 |
| F27S | 0.154 ± 0.051 |
| Q45D | 0.132 ± 0.16 |
| Q45V | -0.278 ± 0.079 |
| Q45F | -0.339 ± 0.091 |
| Y60P | -0.052 ± 0.076 |

| Variant | abundance fitness |
| --- | --- |
| Y60A | 0.043 ± 0.059 |
| Y60N | -0.236 ± 0.18 |
| Y60V | -0.073 ± 0.05 |
| Y60K | 0.128 ± 0.073 |
| R51A | -0.031 ± 0.049 |
| R51N | -0.017 ± 0.052 |
| R51Y | -0.199 ± 0.096 |
| R51P | -0.225 ± 0.059 |
| R51V | -0.072 ± 0.055 |
| R51I | -0.175 ± 0.082 |
| R51T | 0.042 ± 0.047 |
| A16R | 0.021 ± 0.053 |
| A16I | -0.071 ± 0.15 |
| A16C | -0.376 ± 0.086 |
| A16Y | -0.564 ± 0.15 |
| A16D | 0.068 ± 0.12 |
| S40P | -1.01 ± 0.16 |
| S40C | -0.338 ± 0.15 |
| S40Y | -0.295 ± 0.094 |
| S40I | 0.435 ± 0.11 |
| S40H | -0.092 ± 0.12 |
| S40M | -0.164 ± 0.078 |
| S40N | 0.005 ± 0.1 |
| S40G | 0.009 ± 0.052 |

| Variant | abundance fitness |
| --- | --- |
| S40T | 0.099 ± 0.061 |
| P23T | -0.898 ± 0.23 |
| P23F | -1.16 ± 0.26 |
| P23S | -0.335 ± 0.069 |
| P23D | -0.922 ± 0.39 |
| P23H | -0.615 ± 0.14 |
| P23K | -0.37 ± 0.11 |
| P23R | -0.454 ± 0.056 |
| K52M | -0.373 ± 0.074 |
| K52C | -0.547 ± 0.086 |
| K52S | -0.145 ± 0.04 |
| K52E | -0.219 ± 0.07 |
| K52P | -0.303 ± 0.079 |
| K52V | -0.584 ± 0.072 |
| K57C | -0.275 ± 0.064 |
| K57L | -0.346 ± 0.056 |
| K57M | 0.036 ± 0.088 |
| K57Q | -0.021 ± 0.09 |
| K57R | -0.164 ± 0.053 |
| K57S | -0.052 ± 0.05 |
| K57A | -0.034 ± 0.069 |
| K57T | -0.093 ± 0.063 |
| K57F | -0.23 ± 0.086 |
| K57Y | -0.282 ± 0.091 |

| Variant | abundance fitness |
| --- | --- |
| P3F | 0.125 ± 0.081 |
| P3R | -0.157 ± 0.053 |
| P3N | -0.163 ± 0.083 |
| P3D | 0.375 ± 0.15 |
| P3Q | -0.292 ± 0.096 |
| P3I | -0.228 ± 0.096 |
| P3V | -0.14 ± 0.088 |
| P3H | -0.068 ± 0.059 |
| Q1W | -0.282 ± 0.11 |
| Q1A | -0.474 ± 0.16 |
| Q1M | 0.137 ± 0.13 |
| Q1F | -0.088 ± 0.13 |
| E29F | -0.431 ± 0.14 |
| E29D | -0.174 ± 0.087 |
| E29P | -0.802 ± 0.18 |
| E29M | -0.564 ± 0.12 |
| E29Y | -0.372 ± 0.095 |
| E29H | -0.501 ± 0.082 |
| E29A | -0.326 ± 0.09 |
| E29V | -0.618 ± 0.099 |
| T14Q | 0.146 ± 0.096 |
| T14P | -0.62 ± 0.12 |
| T14V | -0.147 ± 0.062 |
| T14R | -0.03 ± 0.065 |

| Variant | abundance fitness |
| --- | --- |
| G28R | 0.118 ± 0.04 |
| G28M | -0.179 ± 0.063 |
| G28S | 0.013 ± 0.046 |
| M37A | -0.063 ± 0.071 |
| Q21G | -0.289 ± 0.057 |
| Q21P | -0.722 ± 0.14 |
| Q21C | -0.256 ± 0.13 |
| Q21W | -0.388 ± 0.089 |
| Q21L | -0.219 ± 0.056 |
| Q21T | -0.011 ± 0.084 |
| Q21M | -0.199 ± 0.17 |
| A35T | -0.066 ± 0.08 |
| A35Y | -0.197 ± 0.13 |
| F10T | -0.53 ± 0.11 |
| F10Y | 0.047 ± 0.12 |
| F10A | -0.981 ± 0.31 |
| F10P | -0.572 ± 0.28 |
| I18S | -0.682 ± 0.1 |
| I18D | -1.11 ± 0.49 |
| I18P | -1.03 ± 0.18 |
| I18N | -0.72 ± 0.41 |
| R12D | -0.526 ± 0.23 |
| R12Q | -0.057 ± 0.094 |
